Experimental data from the supplement of paper PMC9170038.

Test system: MS2 coat protein
Test: apparent KD of MS2 coat protein; designed switch direction (-1 OFF switch, 1 ON switch): -1; higher = weaker reporter binding
Procedure, shortened: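 The reported apparent KD is a per-design median over clusters, from curve fits of normalised cluster fluorescence. Protein titrations used SNAP-549-labelled MS2 coat protein, doubled from 0.7 or 1.5 nM to 3 µM, in Tris-HCl pH 7.5 buffer with KCl, MgCl2, BSA, DTT, tRNA and Tween-20, with no input, 200 uM small-molecule ligand, or an oligonucleotide input. The RNA switches were transcribed on Illumina chips by stalled E. coli RNA polymerase.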

[1] = Eterna round: R95, input ligand: FMN 200 uM
[2] = Eterna round: R95, input ligand: microRNA oligo, concentration not stated
[3] = Eterna round: R95, input ligand: none
[4] = input ligand: microRNA oligo, concentration not stated

| Sequence | apparent KD of MS2 coat protein (input ligand: FMN 200 uM) | apparent KD of MS2 coat protein (input ligand: none) | apparent KD of MS2 coat protein [1] | apparent KD of MS2 coat protein [2] | apparent KD of MS2 coat protein [3] | apparent KD of MS2 coat protein [4] |
| --- | --- | --- | --- | --- | --- | --- |
| AAGUAACAUGAGGAUCACCCAUGUUAGGAUAUCUCGGCCACAGGAACGCUGUAAAGCCAGAGAAGGAGCGGGUG [Mabi] (Eterna round: R97, puzzle: Exclusion 1) | 156 nM | 127 nM | – | – | – | – |
| AAGUACCGUCACGAAAGUGAUGGUACAACAAGCAAAUGUACAUGAGGAUCACCCAUGUCCUCAAUUGCUCGUCUUAU [Sensor 3 - 57] (puzzle: Sensor v3, turn-off variant 2) | – | – | 88.2 nM | 176 nM | 92.8 nM | – |
| AAGUACCGUCACGAUAGUGAUGGUACAACAAGCAGUGAAACAUGAGGAUCACCCAUGUCCUCGAUUGCUCGUCUUAU [Sensor 3 - 80] (puzzle: Sensor v3, turn-off variant 2) | – | – | 67.7 nM | 142 nM | 66.3 nM | – |
| AAGUACUACAAGCUUCGGGACAUGAGGAUCACCCAUGUUCGUCUUAUUGAUCUAGGUACGCUGACGUACCUAGAUCU [Mat - Sensor v3 - turn-off var 1 - JL Mod - D11] (puzzle: Sensor v3, turn-off variant 1) | – | – | 14.1 nM | 39.2 nM | 14.2 nM | – |
| AAGUAGGCAGGAUAUACAUGAGGAUCACCCAUGUGCCUAUACAAGGUAAUCUUGGGAGGUAGAAGGGCCUACAA [ChP 13.04.2015 #3] (puzzle: Exclusion 3) | – | – | – | 33 nM | – | – |
| AAGUCGAGCGUGAGGAUAUCGUUCGAACGACCGAACGAGAAGGCACAUGAGGAUCACCCAUGUGAUUCAGUUCA [Brourd's EX4 #46] (Eterna round: R97, puzzle: Brourd's mod of Exclusion 4) | 39.8 nM | 17.8 nM | – | – | – | – |
| AAUAAACAUGAGGAUCACCCAUGUGAGGAUAUGCAAAUAAAUAAAUAAAUAAAUAAUAGUAGAAGGCGCAAUAA [Excls1-I] (puzzle: Exclusion 1) | – | – | 34 nM | 52.6 nM | 63 nM | – |
| AAUAAAGGAGGAUAUACAUGAGGAUCACCCAUGUGAAUAAAAUAAAUAAAAUGAUAAAGUAGAAGGCCUAAUAA [JMF's solution 3] (puzzle: Exclusion 3) | – | – | 33.5 nM | 33.3 nM | 49.7 nM | – |
| AAUAACAAUGUGAGGAUAUCUAGAGCCUCGGCUCUAGAGAAGGCACAUGAGGAUCACCCAUGUCUCAAUAACAA [BmEx4/2-E7] (Eterna round: R97, puzzle: Brourd's mod of Exclusion 4) | 502 nM | 52.7 nM | – | – | – | – |
| AAUAACAGAGGAUAUACUAUUUUAUGUAUUUAUUAUUUUAAACAUGAGGAUCACCCAUGUAGAAGGCUGAAUAA [JMF 11] (puzzle: Exclusion 2) | – | – | – | 19.8 nM | – | – |
| AAUAACAGAGGAUAUACUGUUUUAUGUGUUUGUUAUUUUAAACAUGAGGAUCACCCAUGUAGAAGGCUGAGUAA [JMF 30] (puzzle: Exclusion 2) | – | – | – | 25 nM | – | – |
| AAUAACAGAGGAUAUGCGAAUAAAUAAAACUUUUUUUUUUAACAUGAGGAUCACCCAUGUAGAAGGCUGAUAUU [Ex2 #21] (Eterna round: R97, puzzle: Exclusion 2) | 35.6 nM | 37 nM | – | – | – | – |
| AAUAAGUUAGGAUAUACAUGAGGAUCACCCAUGUCCCACCCGUUACCUAUGACCAUAUGUAGAAGGAGCAAUAA [Exy#2] (Eterna round: R97, puzzle: Exclusion 3) | 62.1 nM | 32.7 nM | – | – | – | – |
| AAUAAUAAGGAGGAUAUCCUAACCGAAAGGUUAGGAGAAGGCCUAACAUGAGGAUCACCCAUGUUCCUCAAUAA [Mat - Exclusion 6 - Eli Mod - D57] (puzzle: Exclusion 6) | – | – | 318 nM | 236 nM | 118 nM | – |
| AAUAAUCGAGGAUAUACUAAAAUAUGAAUAAAAUAAAUAAAACAUGAGGAUCACCCAUGUAGAAGGCGAAAUAA [JMF's Not so obvious solution 1] (puzzle: Exclusion 2) | – | – | 20.8 nM | 24.1 nM | 29.5 nM | – |
| AAUAAUGAUAAGGAUAUUACUAGCGAUAGCUAGUGAGAAGGUAUCACAUGAGGAUCACCCAUGUGUUCCAAUAA [Ex6/6-B4] (Eterna round: R97, puzzle: Exclusion 6) | 70.1 nM | 17.3 nM | – | – | – | – |
| AAUAAUGGAGGAUAUACAUGAGGAUCACCCAUGUGAAUAAAAUAAAUAAAAUGAUAAAGUAGAAGGCCAAAUAA [JMF's solution 2] (puzzle: Exclusion 3) | – | – | 42.7 nM | 39.9 nM | 53.6 nM | – |

| Sequence | apparent KD of MS2 coat protein (input ligand: FMN 200 uM) | apparent KD of MS2 coat protein (input ligand: none) | apparent KD of MS2 coat protein [1] | apparent KD of MS2 coat protein [2] | apparent KD of MS2 coat protein [3] | apparent KD of MS2 coat protein [4] |
| --- | --- | --- | --- | --- | --- | --- |
| AAUACAAGCUAUUGAUCCCACAUGAGGAUCACCCAUGUAUAUGCCCGUGACACGUGCAUGACGAUAGCUCGUCUUAU [Sensor-V1 #60] (Eterna round: R97, puzzle: Sensor, turn-off variant 1) | 85.8 nM | 102 nM | – | – | – | – |
| AAUACCCGAGGAUAUCUAAUUCGGCACAUGAGGAUCACCCAUGUGAUCUGACCUAGCCGAGGAGAAGGCGGGUCAG [Errizabe] (puzzle: Exclusion 5) | – | – | 25.8 nM | 12.9 nM | 12.1 nM | – |
| AAUACCGGUCUGCCUAAAGACAUGAGGAUCACCCAUGUCUGAUUCUCAACAGGCCUUUUGCUUCUCUUAACUACACA [Vetilage] (puzzle: Sensor v3, turn-off variant 1) | – | – | 13.9 nM | 23.1 nM | 12.6 nM | – |
| AAUCCACAUGAGGAUCACCCAUGUCAGGAUAUCGCGCGCGCGGUUUCGGUCGCGCGCGCGAGAAGGGACGGCUG (puzzle: Exclusion 1) | – | – | – | 22.1 nM | – | – |
| AAUCUUCUAGGAUAUAUAUGGUAGCGGGAGAACCCAGUCACACAUGAGGAUCACCCAUGUAGAAGGAGAAUAGG [Eternabot (L1) Solution 87] (Eterna round: R97, puzzle: Exclusion 2) | 107 nM | 99.7 nM | – | – | – | – |
| AAUGAUGAUGUGAGGAUAUACAUAGUUAGAAAGUAGUAGAAGGCACAUGAGGAUCACCCAUGUAGAUGUAAGGU [JR_BME4_Sub001] (puzzle: Brourd's mod of Exclusion 4) | – | – | 52.5 nM | 26.3 nM | 24.6 nM | – |
| AAUGCCGUAGGAUAUAUAUGGCAGAUCGCACGUCCUGAAAGACAUGAGGAUCACCCAUGUAGAAGGGCGGAAAC [Ceisisan] (puzzle: Exclusion 2) | – | – | – | 14.1 nM | – | – |
| AAUGCGAGUGUUAGGAUAUACAAGGAUCCAUAUUUGUAGAAGGAACAUGAGGAUCACCCAUGUAAGGGAAUAAA [Enususxebe] (puzzle: Brourd's mod of Exclusion 4) | – | – | 166 nM | 59.5 nM | 65.7 nM | – |
| AAUGGUAAAGUCAGGAUAUACGUAAGUCGUUCUAGGUAGAAGGGACAUGAGGAUCACCCAUGUAUGAUAGUAAA [Ex4 #33] (Eterna round: R97, puzzle: Brourd's mod of Exclusion 4) | 25.4 nM | 44.6 nM | – | – | – | – |
| AAUUAACAUGUAGGAUAUCUGCACGUUUAGUGCAGAGAAGGACAUGAGGAUCACCCAUGUAUAGCGACUUCGGUCGCAAUAAUU [ENG1/2-B2] (Eterna round: R96, puzzle: Exclusion NG 1) | 377 nM | 131 nM | – | – | – | 105 nM |
| AAUUAGUGAGGAUAUUUGAACAGUGGCAGUAGCCAGUGCAUGAAGAAGGCACAUGAGGAUCACCCAUGUUAUAA [EX4 #58] (Eterna round: R97, puzzle: Exclusion 4) | 70.5 nM | 39.8 nM | – | – | – | – |
| AAUUAUUAUCGAGGAUAUCGUAUUGAAAUAAUAUGAGAAGGCGGGAUAAACAUGAGGAUCACCCAUGUGAGCCUGAUGCUUGUG [Ex NG1 #38] (Eterna round: R96, puzzle: Exclusion NG 1) | – | – | – | – | – | 14.9 nM |
| AAUUCACAAGCGAGAUCCCACAUGAGGAUCACCCAUGUGCUCGUCUUAUAAGGUACUGUGACGAGAGUCACGGUACC [Mat - Sensor, turn-off var - Eli Mod - D88] (Eterna round: R97, puzzle: Sensor, turn-off variant 1) | 15.7 nM | 16 nM | – | – | – | – |
| AAUUCACAUGAGGAUCACCCAUGUCAGGAUAUGGUUUCGCGGGUUUCGGUGCGUGAGGCCAGAAGGGACAGCUA (puzzle: Exclusion 1) | – | – | – | 49.2 nM | – | – |
| AAUUCGAGAGGAUAUACAGGUGAUAUGUAGAAGCCUCGAGCACAUGAGGAUCACCCAUGUAGAAGGCUCAUAUA [EX2 A.11] (Eterna round: R97, puzzle: Exclusion 2) | 262 nM | 29.6 nM | – | – | – | – |
| AAUUUACAUGAGGAUCACCCAUGUCAGGAUAUGGUUUUAUUUUUUUCUUUUUUUGAUUCCAGAAGGGACAGUUA (puzzle: Exclusion 1) | – | – | – | 91.5 nM | – | – |
